Experimental findings from article PMC4619609 are described below.

Experiment in all cases: ELISA
(In an ELISA, binding on a coated surface is turned into a signal by an enzyme label.)

The target in one assay is mAb 1361 (V2i). The note with it: mAbs (10 µg/ml); gp120s from virus lysates; parent: est. 2.8; read off a plot.
In a further assay the target is mAb 830A (V2i). The note with it: mAbs (10 µg/ml); gp120s from virus lysates; parent: est. 2.1; read off a plot.
The next assay deals with mAb 1393A (V2i). The note with it: mAbs (10 µg/ml); gp120s from virus lysates; parent: est. 2.2; read off a plot.
For assay [1], the target named is recombinant CD4-IgG2 protein (UniProt P01730). The note with it: 10 µg/ml; gp120s from virus lysates; parent: est. 3.7; read off a plot.
The target of a further assay is mAb 2219 (V3). Particulars: mAbs (10 µg/ml); gp120s from virus lysates; parent: est. 2.2; read off a plot.
A further assay deals with mAb 1357 (V2i). The note with it: mAbs (10 µg/ml), gp120s from virus lysates.
The target of another assay is mAb 2158 (V2i). Particulars: mAbs (10 µg/ml); gp120s from virus lysates; parent: est. 2.0; read off a plot.
The target of the next assay is mAb 1331 (CD4bs). Particulars: mAbs (10 µg/ml); gp120s from virus lysates; parent: est. 2.0; read off a plot.
Another assay has as its target mAb 1418 (Ctrl). The note with it: mAbs (10 µg/ml); gp120s from virus lysates; parent: est. 0.21; read off a plot.

In the case of gp120 of ZM109 WT R153E, the response in the assay with mAb 1361 (V2i) worked out at 2.3 OD 405nm; with mAb 830A (V2i), 2 OD 405nm; in the assay with mAb 1393A (V2i), 2.4 OD 405nm; in [1] it was 3.6 OD 405nm; with mAb 2219 (V3), 2.6 OD 405nm; in the assay with mAb 1357 (V2i) (parent: est. 0.46, read off a plot) it was 1.5 OD 405nm. Also, the response with mAb 2158 (V2i) is 1.7 OD 405nm; in the assay with mAb 1331 (CD4bs) it was 1.9 OD 405nm; in the assay with mAb 1418 (Ctrl) it was 0.17 OD 405nm. Also, in the assay with mAb 1357 (V2i), the ratio to parent was 3 x.
